US20230257454A1 (STAIDSON BEIJING BIOPHARMACEUTICALS, published 2023)
Numbering of substitutions follows the chain as printed.

Tests used:
Experiment in all cases: ELISA on the coated C5a protein, antibody titrated, OD410
[1] = target: T1, C5a-Q3A
T1 single chain: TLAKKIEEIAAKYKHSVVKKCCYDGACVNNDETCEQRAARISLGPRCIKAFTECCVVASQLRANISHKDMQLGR

[2] = target: T2, C5a-K5A
T2 single chain: T1 single chain with A3Q, K5A

[3] = target: T3, C5a-E7A
T3 single chain: T1 single chain with A3Q, E7A

[4] = target: T4, C5a-K4A
T4 single chain: T1 single chain with A3Q, K4A

[5] = target: T5, C5a-T1A
T5 single chain: T1 single chain with T1A, A3Q

[6] = target: T6, C5a-L2A
T6 single chain: T1 single chain with L2A, A3Q

[7] = target: T7, C5a-E8A
T7 single chain: T1 single chain with A3Q, E8A

[8] = target: T8, C5a-K12A
T8 single chain: T1 single chain with A3Q, K12A

[9] = target: T9, C5a-Y13A
T9 single chain: T1 single chain with A3Q, Y13A

[10] = target: T10, C5a-V28A
T10 single chain: T1 single chain with A3Q, V28A

[11] = target: T11, C5a-C27A
T11 single chain: T1 single chain with A3Q, C27A

[12] = target: T12, C5a-K20A
T12 single chain: T1 single chain with A3Q, K20A

[13] = target: T13, C5a-Y23A
T13 single chain: T1 single chain with A3Q, Y23A

[14] = target: T14, C5a-V28F
T14 single chain: T1 single chain with A3Q, V28F

[15] = target: T15, C5a-V28R
T15 single chain: T1 single chain with A3Q, V28R

[16] = target: T16, C5a-N29A
T16 single chain: T1 single chain with A3Q, N29A

[17] = target: T17, C5a-E35A
T17 single chain: T1 single chain with A3Q, E35A

[18] = target: T18, C5a-T33A
T18 single chain: T1 single chain with A3Q, T33A

[19] = target: T19, C5a-Q36A
T19 single chain: T1 single chain with A3Q, Q36A

[20] = target: T20, C5a-R62A
T20 single chain: T1 single chain with A3Q, R62A

[21] = target: T21, C5a-N30A
T21 single chain: T1 single chain with A3Q, N30A

Measured: binding result

B1: Cab42-IgG1 (antibody, V domains shown)
VH: EMQLVESGGGLVQPGGSLRLSCAASGFTFSDYYMQWVRQAPGKGPEWVGLIRNKAVGETTQYAASVKGRFTISRDDSKNSVYLQMNSLKTEDTAVYYCVSRAGPPGLSWGQGVLVTVSS
VL: DIVMTQSPLSLPVTPGEPASISCRSSQSLLASDAYNYIDWYLQKPGQSPQLLIYGGSNRASGVPDRFSGSGSGTDFTLKISRVEAEDVGVYFCLQHRALPPTFGQGTKLEIK
notes: Full-length human IgG1; It was biotinylated in the peptide-Fc ELISA
binds: [1] | [2] | [3] | [4] | [5] | [6] | [7] | [8] | [9] | [10] | [11] | [12] | [13] | [14] | [15] | [16] | [17] | [18] | [19] | [20] | [21]
